Ends that are not written are not given here. * marks the point of attachment. Biotin = O=C1N[C@H]2[C@H](CS[C@H]2CCCCC(=O)*)N1
T1: biotinylated DEFA5 epitope peptide Biotin-RATCYCRTGRCAT (human, cysteine pairing not given here)
T1 peptide: Biotin-RATCYCRTGRCAT

B1: mouse monoclonal antibody clone 4F5 (anti-DEFA5) (antibody, V domains shown)
VH: QVQLQQSGAELVRPGASVKMSCKALGYTFFDYEMHWMKQTPVYGLEWIGAIHPGSGDTAYNQKFKGKATLTADKSSNTAYMELSSLTSEDSAVYYCTREGTVVAPFDYWGQGTTLTVSS
VL: DVLMTQTPLSLPVSLGDQASISCRSSQSIVHSNGNTYLEWYLQKPGQSPKLLINKVSNRFSGVPDRFSGSGSGTDFTLKISRVEAEDLGVYYCFQGSYVPYTFGGGTKLEIK
modifications: Fc glycosylation, G1F lower and afucosylated G0 ~15 % (intact ESI-MS)
B2: mouse monoclonal antibody clone 1A8 (anti-DEFA5) (antibody, V domains shown)
VH: QVQLQQSGAELVRPGASVKMSCKALGYTFFDYEMHWMKQTPVYGLEWIGAIHPGSGDTAYNQKFKGKATLTADKSSNTAYMELSSLTSEDSAVYYCTREGTVVAPFDYWGQGTTLTVSS
VL: DVLMTQTPLSLPVSLGDQASISCRSSQSIVHSNGNTYLEWYLQKPGQSPKLLINKVSNRFSGVPDRFSGSGSGTDFTLKISRVEAEDLGVYYCFQGSYVPYTFGGGTKLEIK
modifications: Fc glycosylation, mainly the G1F glycoform (intact ESI-MS)

Target: T1, biotinylated DEFA5 epitope peptide …
Assay: SPR

Binder | koff [s⁻¹]
B1 | 0.00261
B2 | 0.00253

Source: paper PMC12809912 (2025)
